For two substances, percent decrease of BiFC fluorescence in the nucleus against wild type Ubx and percent loss of pulled-down Emb against wild type GST-Ubx results are on record in paper doi:10.1101/843383.

Test [1] addresses VC-Ubx^NES (NES-mutated full length Ubx fused to the C-terminal fragment of Venus) (Drosophila). Briefly: split reporter.
For test [2], the target named is GST-Ubx NES-mutated (Drosophila). In words: pull-down.

With “VN-Emb (Embargoed fused to the N-terminal fragment of Venus) (from UniProt Q9TVM2 1-1063) (natural protein)”, the percent decrease of BiFC fluorescence in the nucleus against wild type Ubx in test [1] amounted to 40%.
For the substance “VC-Emb, in S2R+ cell extract (from UniProt Q9TVM2 1-1063) (natural protein)”, in test [2], the percent loss of pulled-down Emb against wild type GST-Ubx is 30%.
